Consider one substance from US20210002376A1.

Like-named read-outs stand apart in the source and are kept apart here.

Assay [1] has as its target DR5-Fc fusion protein (UniProt O14763). In words: ELISA, coated DR5-Fc, anti-human Fab-HRP. Background: An ELISA detects its analyte on a solid surface through an enzyme-linked reagent.
Assay [2] has the same target. In words: ELISA, coated DR5-Fc, anti-human Fab-HRP. The source holds these as a separate data set.

Regarding Drozitumab (antibody), the EC50 amounted to 1.2 nM in assay [1] and 1.4 nM in assay [2].

By EC50 is commonly meant the concentration giving half of the maximal effect. Higher therefore signals lower potency in that assay.
